Where no end group is shown, it is not given here.

The target in experiment [1] is AkFaNaC W167F (Aplysia kurodai).
Experiment [2] deals with AkFaNaC W167Y (Aplysia kurodai).

Regarding FMRF-NH2 [FMRFamide], the EC50 of the FMRFamide-gated Na+ current (COVC, Xenopus oocytes) in experiment [1] and in experiment [2] was above 100 µM throughout.

Source of the values: article doi:10.1101/2023.02.01.526556.
